Laboratory results from article doi:10.1101/2020.01.21.914671.

Columns and labels:
Experiment in all cases: ITC
[1] = biological target: human Bmf BH3 motif peptide (26-mer) (human)
[2] = biological target: human Bad BH3 motif peptide (26-mer) (human)
[3] = biological target: human Hrk BH3 motif peptide (26-mer) (human)
[4] = biological target: human Puma BH3 motif peptide (26-mer) (human)

With “TANV16L K52A lacking the C-terminal 23 residues (domain or fragment)” as the substance, how does the fold reduction in binding against wild type TANV16L [1] read?
The fold reduction in binding against wild type TANV16L was 20 fold.

What about the fold reduction in binding against wild type TANV16L [2] of the same substance?
The fold reduction in binding against wild type TANV16L was 27 fold.

What does the source list for “TANV16L R90A lacking the C-terminal 23 residues (domain or fragment)”?
fold reduction in binding against wild type TANV16L [3]: 2 fold; fold reduction in binding against wild type TANV16L [4]: 2 fold
